Laboratory results as given in US20180273587A1 (AILERON THERAPEUTICS, published 2018).
Positions of bridges follow the written chain, without caps; N, C: chain ends. Non-standard residues stand in square brackets, D forms with d. Phe(4-F) = N[C@@H](Cc1ccc(F)cc1)C(=O)O; 2Nal = N[C@@H](Cc1ccc2ccccc2c1)C(=O)O; R8 = C=CCCCCCC[C@@](C)(N)C(=O)O; hLeu = CC(C)CC[C@H](N)C(=O)O; S5 = C=CCCC[C@](C)(N)C(=O)O

Columns and labels:
Assay in all cases: Ki; method not stated; unit not printed (nM per Table 6)
BCL-XL = biological target: T1, BCL-XL (UniProt Q07817 1-209)
T1 construct: Target of the Ki columns
T1 sequence (Q07817 1-209): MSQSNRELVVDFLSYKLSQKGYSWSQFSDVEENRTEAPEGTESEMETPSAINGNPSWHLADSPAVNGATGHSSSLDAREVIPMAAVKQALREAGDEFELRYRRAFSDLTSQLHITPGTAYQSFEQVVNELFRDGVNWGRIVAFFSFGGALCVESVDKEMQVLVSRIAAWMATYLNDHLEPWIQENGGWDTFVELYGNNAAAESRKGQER

MCL-1 = biological target: T2, MCL-1 (UniProt Q07820 172-327, limits assumed)
T2 construct: Target of the Ki columns; also called Myeloid cell leukemia 1
T2 sequence (Q07820 172-327 limits assumed): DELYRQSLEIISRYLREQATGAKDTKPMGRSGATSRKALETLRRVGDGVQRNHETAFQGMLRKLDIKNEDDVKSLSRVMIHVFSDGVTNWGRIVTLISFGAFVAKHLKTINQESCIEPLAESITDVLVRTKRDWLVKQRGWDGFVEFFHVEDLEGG

BCL-2 = biological target: T3, BCL-2 (UniProt P10415 1-217, limits assumed)
T3 construct: Target of the Ki columns
T3 sequence (P10415 1-217 limits assumed): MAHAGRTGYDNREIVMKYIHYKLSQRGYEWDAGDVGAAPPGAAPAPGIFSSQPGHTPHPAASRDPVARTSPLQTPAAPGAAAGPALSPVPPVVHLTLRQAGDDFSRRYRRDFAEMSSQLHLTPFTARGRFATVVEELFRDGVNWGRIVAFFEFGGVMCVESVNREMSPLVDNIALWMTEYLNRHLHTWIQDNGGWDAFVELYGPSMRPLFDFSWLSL

Ki (BCL-XL)	Ki (MCL-1)	Ki (BCL-2)	Binder
37 nM	52 nM	–	Ac-AWIAAALR[R8][hLeu]GDAFN[S5]Y[Phe(4-F)]A-NH2 (staple 9-16; SMILES CC[C@H](C)[C@H](NC(=O)[C@H](Cc1c[nH]c2ccccc12)NC(=O)[C@H](C)NC(C)=O)C(=O)N[C@@H](C)C(=O)N[C@@H](C)C(=O)N[C@@H](C)C(=O)N[C@@H](CC(C)C)C(=O)N[C@@H](CCCNC(=N)N)C(=O)N[C@]1(C)CCCCCCC=CCCC[C@@](C)(C(=O)N[C@@H](Cc2ccc(O)cc2)C(=O)N[C@@H](Cc2ccc(F)cc2)C(=O)N[C@@H](C)C(N)=O)NC(=O)[C@H](CC(N)=O)NC(=O)[C@H](Cc2ccccc2)NC(=O)[C@H](C)NC(=O)[C@H](CC(=O)O)NC(=O)CNC(=O)[C@H](CCC(C)C)NC1=O) [SEQ ID NO: 1779]
9 nM	23 nM	–	Ac-AWIAAALR[R8][hLeu]GDAFN[S5]A[Phe(4-F)]A-NH2 (staple 9-16; SMILES CC[C@H](C)[C@H](NC(=O)[C@H](Cc1c[nH]c2ccccc12)NC(=O)[C@H](C)NC(C)=O)C(=O)N[C@@H](C)C(=O)N[C@@H](C)C(=O)N[C@@H](C)C(=O)N[C@@H](CC(C)C)C(=O)N[C@@H](CCCNC(=N)N)C(=O)N[C@]1(C)CCCCCCC=CCCC[C@@](C)(C(=O)N[C@@H](C)C(=O)N[C@@H](Cc2ccc(F)cc2)C(=O)N[C@@H](C)C(N)=O)NC(=O)[C@H](CC(N)=O)NC(=O)[C@H](Cc2ccccc2)NC(=O)[C@H](C)NC(=O)[C@H](CC(=O)O)NC(=O)CNC(=O)[C@H](CCC(C)C)NC1=O) [SEQ ID NO: 1780]
–	29 nM	218 nM	IWIAQALRAIGDAFNAYYX (N-terminal Ac; $r8 at 9 and $ at 16 (crosslinked); Aib at 19; C-terminal NH2) [SEQ ID NO: 1770]
67.8 nM	3.6 nM	117 nM	Ac-IWISAALR[R8]IGDAFN[S5]YYA-NH2 (staple 9-16; SMILES CC[C@H](C)[C@H](NC(C)=O)C(=O)N[C@@H](Cc1c[nH]c2ccccc12)C(=O)N[C@H](C(=O)N[C@@H](CO)C(=O)N[C@@H](C)C(=O)N[C@@H](C)C(=O)N[C@@H](CC(C)C)C(=O)N[C@@H](CCCNC(=N)N)C(=O)N[C@]1(C)CCCCCCC=CCCC[C@@](C)(C(=O)N[C@@H](Cc2ccc(O)cc2)C(=O)N[C@@H](Cc2ccc(O)cc2)C(=O)N[C@@H](C)C(N)=O)NC(=O)[C@H](CC(N)=O)NC(=O)[C@H](Cc2ccccc2)NC(=O)[C@H](C)NC(=O)[C@H](CC(=O)O)NC(=O)CNC(=O)[C@H]([C@@H](C)CC)NC1=O)[C@@H](C)CC) [SEQ ID NO: 1733]
96.2 nM	19.7 nM	170 nM	Ac-IWILAALR[R8]IGDAFN[S5]YYA-NH2 (staple 9-16; SMILES CC[C@H](C)[C@H](NC(C)=O)C(=O)N[C@@H](Cc1c[nH]c2ccccc12)C(=O)N[C@H](C(=O)N[C@@H](CC(C)C)C(=O)N[C@@H](C)C(=O)N[C@@H](C)C(=O)N[C@@H](CC(C)C)C(=O)N[C@@H](CCCNC(=N)N)C(=O)N[C@]1(C)CCCCCCC=CCCC[C@@](C)(C(=O)N[C@@H](Cc2ccc(O)cc2)C(=O)N[C@@H](Cc2ccc(O)cc2)C(=O)N[C@@H](C)C(N)=O)NC(=O)[C@H](CC(N)=O)NC(=O)[C@H](Cc2ccccc2)NC(=O)[C@H](C)NC(=O)[C@H](CC(=O)O)NC(=O)CNC(=O)[C@H]([C@@H](C)CC)NC1=O)[C@@H](C)CC) [SEQ ID NO: 1734]
110 nM	17.2 nM	125 nM	Ac-IWIFAALR[R8]IGDAFN[S5]YYA-NH2 (staple 9-16; SMILES CC[C@H](C)[C@H](NC(C)=O)C(=O)N[C@@H](Cc1c[nH]c2ccccc12)C(=O)N[C@H](C(=O)N[C@@H](Cc1ccccc1)C(=O)N[C@@H](C)C(=O)N[C@@H](C)C(=O)N[C@@H](CC(C)C)C(=O)N[C@@H](CCCNC(=N)N)C(=O)N[C@]1(C)CCCCCCC=CCCC[C@@](C)(C(=O)N[C@@H](Cc2ccc(O)cc2)C(=O)N[C@@H](Cc2ccc(O)cc2)C(=O)N[C@@H](C)C(N)=O)NC(=O)[C@H](CC(N)=O)NC(=O)[C@H](Cc2ccccc2)NC(=O)[C@H](C)NC(=O)[C@H](CC(=O)O)NC(=O)CNC(=O)[C@H]([C@@H](C)CC)NC1=O)[C@@H](C)CC) [SEQ ID NO: 1735]
19.5 nM	6.6 nM	43 nM	Ac-IHIAAALR[R8]IGDAFN[S5]YYA-NH2 (staple 9-16; SMILES CC[C@H](C)[C@H](NC(C)=O)C(=O)N[C@@H](Cc1c[nH]cn1)C(=O)N[C@H](C(=O)N[C@@H](C)C(=O)N[C@@H](C)C(=O)N[C@@H](C)C(=O)N[C@@H](CC(C)C)C(=O)N[C@@H](CCCNC(=N)N)C(=O)N[C@]1(C)CCCCCCC=CCCC[C@@](C)(C(=O)N[C@@H](Cc2ccc(O)cc2)C(=O)N[C@@H](Cc2ccc(O)cc2)C(=O)N[C@@H](C)C(N)=O)NC(=O)[C@H](CC(N)=O)NC(=O)[C@H](Cc2ccccc2)NC(=O)[C@H](C)NC(=O)[C@H](CC(=O)O)NC(=O)CNC(=O)[C@H]([C@@H](C)CC)NC1=O)[C@@H](C)CC) [SEQ ID NO: 1727]
37.3 nM	11.2 nM	62.5 nM	Ac-INIAAALR[R8]IGDAFN[S5]YYA-NH2 (staple 9-16; SMILES CC[C@H](C)[C@H](NC(C)=O)C(=O)N[C@@H](CC(N)=O)C(=O)N[C@H](C(=O)N[C@@H](C)C(=O)N[C@@H](C)C(=O)N[C@@H](C)C(=O)N[C@@H](CC(C)C)C(=O)N[C@@H](CCCNC(=N)N)C(=O)N[C@]1(C)CCCCCCC=CCCC[C@@](C)(C(=O)N[C@@H](Cc2ccc(O)cc2)C(=O)N[C@@H](Cc2ccc(O)cc2)C(=O)N[C@@H](C)C(N)=O)NC(=O)[C@H](CC(N)=O)NC(=O)[C@H](Cc2ccccc2)NC(=O)[C@H](C)NC(=O)[C@H](CC(=O)O)NC(=O)CNC(=O)[C@H]([C@@H](C)CC)NC1=O)[C@@H](C)CC) [SEQ ID NO: 1729]
71.8 nM	10.2 nM	126 nM	Ac-ILIAAALR[R8]IGDAFN[S5]YYA-NH2 (staple 9-16; SMILES CC[C@H](C)[C@H](NC(C)=O)C(=O)N[C@@H](CC(C)C)C(=O)N[C@H](C(=O)N[C@@H](C)C(=O)N[C@@H](C)C(=O)N[C@@H](C)C(=O)N[C@@H](CC(C)C)C(=O)N[C@@H](CCCNC(=N)N)C(=O)N[C@]1(C)CCCCCCC=CCCC[C@@](C)(C(=O)N[C@@H](Cc2ccc(O)cc2)C(=O)N[C@@H](Cc2ccc(O)cc2)C(=O)N[C@@H](C)C(N)=O)NC(=O)[C@H](CC(N)=O)NC(=O)[C@H](Cc2ccccc2)NC(=O)[C@H](C)NC(=O)[C@H](CC(=O)O)NC(=O)CNC(=O)[C@H]([C@@H](C)CC)NC1=O)[C@@H](C)CC) [SEQ ID NO: 1730]
45.3 nM	10.2 nM	95.9 nM	Ac-IFIAAALR[R8]IGDAFN[S5]YYA-NH2 (staple 9-16; SMILES CC[C@H](C)[C@H](NC(C)=O)C(=O)N[C@@H](Cc1ccccc1)C(=O)N[C@H](C(=O)N[C@@H](C)C(=O)N[C@@H](C)C(=O)N[C@@H](C)C(=O)N[C@@H](CC(C)C)C(=O)N[C@@H](CCCNC(=N)N)C(=O)N[C@]1(C)CCCCCCC=CCCC[C@@](C)(C(=O)N[C@@H](Cc2ccc(O)cc2)C(=O)N[C@@H](Cc2ccc(O)cc2)C(=O)N[C@@H](C)C(N)=O)NC(=O)[C@H](CC(N)=O)NC(=O)[C@H](Cc2ccccc2)NC(=O)[C@H](C)NC(=O)[C@H](CC(=O)O)NC(=O)CNC(=O)[C@H]([C@@H](C)CC)NC1=O)[C@@H](C)CC) [SEQ ID NO: 1731]
56.2 nM	15.3 nM	89.5 nM	Ac-ISIAAALR[R8]IGDAFN[S5]YYA-NH2 (staple 9-16; SMILES CC[C@H](C)[C@H](NC(C)=O)C(=O)N[C@@H](CO)C(=O)N[C@H](C(=O)N[C@@H](C)C(=O)N[C@@H](C)C(=O)N[C@@H](C)C(=O)N[C@@H](CC(C)C)C(=O)N[C@@H](CCCNC(=N)N)C(=O)N[C@]1(C)CCCCCCC=CCCC[C@@](C)(C(=O)N[C@@H](Cc2ccc(O)cc2)C(=O)N[C@@H](Cc2ccc(O)cc2)C(=O)N[C@@H](C)C(N)=O)NC(=O)[C@H](CC(N)=O)NC(=O)[C@H](Cc2ccccc2)NC(=O)[C@H](C)NC(=O)[C@H](CC(=O)O)NC(=O)CNC(=O)[C@H]([C@@H](C)CC)NC1=O)[C@@H](C)CC) [SEQ ID NO: 1728]
55.3 nM	13.7 nM	144 nM	Ac-I[2Nal]IAAALR[R8]IGDAFN[S5]YYA-NH2 (staple 9-16; SMILES CC[C@H](C)[C@H](NC(C)=O)C(=O)N[C@@H](Cc1ccc2ccccc2c1)C(=O)N[C@H](C(=O)N[C@@H](C)C(=O)N[C@@H](C)C(=O)N[C@@H](C)C(=O)N[C@@H](CC(C)C)C(=O)N[C@@H](CCCNC(=N)N)C(=O)N[C@]1(C)CCCCCCC=CCCC[C@@](C)(C(=O)N[C@@H](Cc2ccc(O)cc2)C(=O)N[C@@H](Cc2ccc(O)cc2)C(=O)N[C@@H](C)C(N)=O)NC(=O)[C@H](CC(N)=O)NC(=O)[C@H](Cc2ccccc2)NC(=O)[C@H](C)NC(=O)[C@H](CC(=O)O)NC(=O)CNC(=O)[C@H]([C@@H](C)CC)NC1=O)[C@@H](C)CC, Row prints Ac-I2NalIAAALR$r8IGDAFN$YYA-NH2) [SEQ ID NO: 1732]
121 nM	127 nM	–	Ac-IWIAQALR[R8][hLeu]GDAFN[S5][Phe(4-F)][Phe(4-F)]A-NH2 (staple 9-16; SMILES CC[C@H](C)[C@H](NC(C)=O)C(=O)N[C@@H](Cc1c[nH]c2ccccc12)C(=O)N[C@H](C(=O)N[C@@H](C)C(=O)N[C@@H](CCC(N)=O)C(=O)N[C@@H](C)C(=O)N[C@@H](CC(C)C)C(=O)N[C@@H](CCCNC(=N)N)C(=O)N[C@]1(C)CCCCCCC=CCCC[C@@](C)(C(=O)N[C@@H](Cc2ccc(F)cc2)C(=O)N[C@@H](Cc2ccc(F)cc2)C(=O)N[C@@H](C)C(N)=O)NC(=O)[C@H](CC(N)=O)NC(=O)[C@H](Cc2ccccc2)NC(=O)[C@H](C)NC(=O)[C@H](CC(=O)O)NC(=O)CNC(=O)[C@H](CCC(C)C)NC1=O)[C@@H](C)CC) [SEQ ID NO: 1778]
